Results published in the RNAGym collection of RNA variant scans (doi:10.1073/pnas.2313332121).

B1: TPR t1 (parent)
chain: GACCAAUCUGCCCUCAGAGCUCGAGAACAUCUUCGGAUGCAGAGGAGGCAGGCUUCGGUGGCGCGAUAGCGCCAACGUCCUCAACCUCCAAUGCAUCCCACCACAUGAUGAUGCCUGAAGAGCCUUGGUUUUUUG

Variants of: B1
Experiment: polymerase ribozyme fitness, log enrichment relative to wild type (log ratio); higher = more active; in vitro selection for triplet polymerase activity
Outline: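 Each subunit of a heterodimeric triplet polymerase ribozyme was represented by a PCR-built, transcribed mutant library that underwent triplicate single-round in vitro selection with frozen incubation at −7 °C. Extended constructs were recovered by gel excision, streptavidin-bead capture and RT-PCR, and Illumina sequencing of input and output libraries kept genotypes with ≥10 input reads and ≥1 read per output. Fitness is the logarithm of genotype enrichment relative to wild-type enrichment, from inverse-variance-weighted replicate averages, with a logarithm base of 2.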

Variant | polymerase ribozyme fitness (log ratio)
C62U G122A | -0.839
C64G C72U | -6.14
C62U C123A | 0.98
C62U U78C C85A U92C C97A | -6.24
G63U U112A A119G | -0.127
G63C A83U | -1.48
G63U U112C | -0.421
G63U U112A | -0.0798
G63A C72U C101U | -1.24
C64G U78G G120A A121G C123A U131C | -4.99
G63A G120A G135C | -0.591
G63U G117C | -4.05
G63U G117A | -1.66
G63C G71U U96A A100U G117U U134G | -5.35
G63A A111G | -0.659
G63A G71C | -3.85
C62U G63U U78G | -3.96
C64A C86U A103U C114A | -6.49
C64A A90G U112G | -5.49
G63C C73G C115G | -5.56
C62U U112A | 1.02

Variant | polymerase ribozyme fitness (log ratio)
C62U U112G | -0.737
G63A C98G G117C G128A U133C | -5.29
G63A C79U A95U C101U | -0.75
C62U U106A | 0.471
G63U U78G G107U A111U U116C | -6
G63A G128A | -2.19
G63A G128C | -3.34
C62U C97U C115G | -3.22
G63A C124U | 0.738
C62U G135A | -1.28
G63U C94G A121U | 0.0576
G63U U116C U129A | -3.33
G63A A83C C102U G113U | -7.43
C62U C88A | -0.404
C64A C123U | -4.1
C64A C123G | -3.71
C64A C123A | -3.79
G63C C64U A118G U133G | -4.77
C62U G77U | -0.487
G63C A75G C85A A95U A100C C115G U126C | -5.24
G63U G127U | -1.73

Variant | polymerase ribozyme fitness (log ratio)
C62U C86U G117C U132A | -4.51
C62U G71C G120U A121C | 0.341
C64U | -0.125
C64A | -6.28
C64G | -6.67
C62U C104U | 0.0133
C64U A83G A111C | -2.93
G63A U126A | -2.47
C64G C82G C89U A100G A111C U116A U129G | -5.44
G63C A111C | -0.587
G63C A103G | -5.66
G63U A83G C85A U129A | -2.64
C64G A121U | -4.94
C64G A121G | -4.54
G63U C115A | -1.22
G63U C115U | -3.37
G63U C115G | -2.29
G63C C88A C94A | -2.47
G63A C82U | -1.51
G63A C64A U81G C115G | -6.59
G63U U78C C94A | -3.61

Variant | polymerase ribozyme fitness (log ratio)
G63U G107A | -4.13
C62U U87C C88G C114A | -3.36
G63U G113U | -4.29
G63U G113C | -2.98
G63U G113A | -1.99
G63U G77C C124U | -0.341
G63U G120U | -0.921
G63C U109G | -3.42
G63C U109C | -4.03
G63U A74U G77A | -5.16
C62U G117C G128A | -6.43
G63A U87G A95U | -1.19
G63U U132A | -0.852
G63U U132C | -2.69
G63U U67A | -6.27
G63A G110A | -2.72
G63A G110U | -3.42
G63A G110C | -5.57
G63A C82U U126G | -2.36
G63C C104A | -1.86
